Reference: patent publication US20100135997A1 (MEDGENE, published 2010)

These binders were tested against T1, HLA-A*0201 loaded with the Carcinoembryonic antigen (CEA)-derived … peptide (biotin on the C-terminal biotinylation tag) (assay: Biacore SPR).
T1 construct: Soluble, biotinylated, immobilised on a streptavidin chip
How it was run: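 Surface plasmon resonance: soluble ILT-like molecule flowed at constant rate over flow cells bearing biotin-tag-captured peptide–MHC. Binding followed as RU change to derive affinity and kinetics.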

Binder | Kd [µM] | koff [s⁻¹]
SEQ ID NO 60 (receptor, mutated soluble two domain ILT-2) MGHLPKPTLWAEPGSVITMDQPVTLRCQGGQETQQYRLYREKKTAPWITRIPQELVKKGQFPIPSITWEHAGRYRCYYGSDTRQWSASSDPLELVVTGVYIKPTLSAQPSPVVNSGGNVTLQCDSQVAFDGFILCKEGEDDHPQCLNSQPHARGSSRAIFSVGPVSPSRRWRYRCYAYDSNSPYEWTRGSDLLELDVDG | ≤ 1 | ≤ 2
SEQ ID NO 119 (receptor, mutated soluble two domain ILT-2) MHLPKPTLWAEPGSVITMDQPVTLRCQGGQETQEYRLYREKKTAPWITRIPQELVKKGQFPIPSITWEHAGRYRCMQYTLTAGRSESSDPLELVVTGVYIKPTLSAQPSPVVNSGGNVTLQCDSQVAFDGFILCKEGEDEHPQCLNSQPHARGSSRAIFSVGPVSPSRRWWYRCYAYDSNSPYEWSLPSDLLELDVDG | ≤ 1 | ≤ 2
SEQ ID NO 126 (receptor, mutated soluble two domain ILT-2) MHLPKPTLWAEPGSVITMDQPVTLRCQGGQETQEYRLYREKKTAPWITRIPQELVKKGQFPIPSITWEHAGRYRCYYGSDTSQWSASSDPLELVVTGVYIKPTLSAQPSPVVNSGGNVTLQCDSQVAFDGFILCKEGEDEHPQCLNSQPHARGSSRAIFSVGPVSPSRRWWYRCYAYDSNSPYEWSDPSDLLELDVDG | ≤ 1 | ≤ 2
SEQ ID NO 121 (receptor, mutated soluble two domain ILT-2) MHLPKPTLWAEPGSVITMDQPVTLRCQGGQETQEYRLYREKKTAPWITRIPQELVKKGQFPIPSITWEHAGRYRCYYGGQEGARSESSDPLELVVTGVYIKPTLSAQPSPVVNSGGNVTLQCDSQVAFDGFILCKEGEDEHPQCLNSQPHARGSSRAIFSVGPVSPSRRWWYRCYAYDSNSPYEWSLPSDLLELDVDG | ≤ 1 | ≤ 2
SEQ ID NO 127 (receptor, mutated soluble two domain ILT-2) MHLPKPTLWAEPGSVITMDQPVTLRCQGGQETQEYRLYREKKTAPWITRIPQELVKKGQFPIPSITWEHAGRYRCYYGSDTSQWSASSDPLELVVTGVYIKPTLSAQPSPVVNSGGNVTLQCDSQVAFDGFILSKEGEDEHPQSLNSQPHARGSSRAIFSVGPVSPSRRWWYRCYAYDSNSPYEWSLPSDLLELDVDG | ≤ 1 | ≤ 2
SEQ ID NO 67 (receptor, mutated soluble two domain ILT-2) MHLPKPTLWAEPGSVITMDQPVTLRCQGGQETQEYRLYREKKTAPWITRIPQELVKKGQFPIPSITWEHAGRYRCYYGSDTSQWSASSDPLELVVTGVYIKPTLSAQPSPVVNSGGNVTLQCDSQVAFDGFILCKEGEDEHPQCLNSQPHARGSSRAIFSVGPVSPSRRWWYRCYAYDSNSPYEWSLPSDLLELDVDGC | ≤ 1 | ≤ 2
SEQ ID NO 107 (receptor, mutated soluble two domain ILT-2) MGHLPKPTLWAEPGSVITMDQPVTLRCQGGQETQEYRLYREKKTAPWITRIPQELVKKGQFPIPSITWEHAGRYRCIGRSQTSQWSASSDPLELVVTGIYLAPTLSAQPSPVVNSGGNVTLQCDSQVAFDGFILCKEGEDEHPQCLNSQPHARGSSRAIFSVGPVSPSRRWWYRCYAYDSNSPYEWSLPSDLLELLVL | ≤ 1 | ≤ 2

More lines, now with the values ahead:

Kd [µM] | koff [s⁻¹] | Binder
≤ 1 | ≤ 2 | SEQ ID NO 109 (receptor, mutated soluble two domain ILT-2) MHLPKPTLWAEPGSVITMDQPVTLRCQGGQETQEYRLYREKKTAPWITRIPQELVKKGQFPIPSITWEHAGRYRCYYGSDTSQWSASSDPLELVVTGVYIKPTLSAQPSPVVNSGGNVTLQCDSQVAFDGFILCKEGEDEHPQCLNSQPHARGSSRAIFSVGPVSPSRRWWYRCYAYDSNSPYEWSLPSDLLELDVDG
≤ 1 | ≤ 2 | SEQ ID NO 125 (receptor, mutated soluble two domain ILT-2) MHLPKPTLWAEPGSVITMDQPVTLRCQGGQETQEYRLYREKKTAPWITRIPQELVKKGQFPIPSITWEHAGRYRCYYGSDTSQWSASSDPLELVVTGVYIKPTLSAQPSPVVNSGGNVTLQCDSQVAFDGFILCKEGEDEHPQCLNSQPHARGSSRAEFSVGPVSPSRRWWYRCYAYDSNSPYEWSLPSDLLELDVDG
≤ 1 | ≤ 2 | SEQ ID NO 122 (receptor, mutated soluble two domain ILT-2) MHLPKPTLWAEPGSVITMDQPVTLRCQGGQETQEYRLYREKKTAPWITRIPQELVKKGQFPIPSITWEHAGRYRCYYGTQTSQWSASSDPLELVVTGVYIKPTLSAQPSPVVNSGGNVTLQCDSQVAFDGFILCKEGEDEHPQCLNSQPHARGSSRAIFSVGPVSPSRRWWYRCYAYDSNSPYEWSLPSDLLELDVDG
≤ 1 | ≤ 2 | SEQ ID NO 124 (receptor, mutated soluble two domain ILT-2) MHLPKPTLWAEPGSVITMDQPVTLRCQGGQETQEYRLYREKKTAPWITRIPQELVKKGQFPIPSITWEHAGRYRCYYGSDTSQWSASSDPLELVVTGVYIKPTLSAQPSPVVNSGGNVTLQCDSQVAFDGFILCKEGEDEHPQCDNSQPHARGSSRAIFSVGPVSPSRRWWYRCYAYDSNSPYEWSLPSDLLELDVDG
≤ 1 | ≤ 2 | SEQ ID NO 120 (receptor, mutated soluble two domain ILT-2) MHLPKPTLWAEPGSVITMDQPVTLRCQGGQETQEYRLYREKKTAPWITRIPQELVKKGQFPIPSITWEHAGRYRCVIQRGTAGRSESSDPLELVVTGVYIKPTLSAQPSPVVNSGGNVTLQCDSQVAFDGFILCKEGEDEHPQCLNSQPHARGSSRAIFSVGPVSPSRRWWYRCYAYDSNSPYEWSLPSDLLELDVDG
≤ 1 | ≤ 2 | SEQ ID NO 108 (receptor, mutated soluble two domain ILT-2) MGHLPKPTLWAEPGSVITLGQPVTLRCQGGQETQEYRLYREKKTAPWITRIPQELVKKGQFPIPSITWEHAGRYRCIGRSQTSQWSASSDPLELVVTGIYLAPTLSAQPSPVVNSGGNVTLQCDSQVAFDGFILCKEGEDEHPQCLNSQPHARGSSRAIFSVGPVSPSRRWWYRCYAYDSNSPYEWSLPSDLLELLVL

The binders below were run against T1, HLA-A*0201 loaded with the … (assay: Biacore SPR, biotinylated pMHC immobilised on streptavidin).

Kd [µM] | koff [s⁻¹] | Binder
~6 | 2.4 | soluble truncated variant of the Wild-Type ILT-2 molecule (domains D1 and D2) (receptor, the entry carries the N-terminal Met used for bacterial expression; also called soluble wild-type ILT-2; soluble variant of wild-type ILT-2) MGHLPKPTLWAEPGSVITQGSPVTLRCQGGQETQEYRLYREKKTAPWITRIPQELVKKGQFPIPSITWEHAGRYRCYYGSDTAGRSESSDPLELVVTGAYIKPTLSAQPSPVVNSGGNVTLQCDSQVAFDGFILCKEGEDEHPQCLNSQPHARGSSRAIFSVGPVSPSRRWWYRCYAYDSNSPYEWSLPSDLLELLVL
